# US20100256148A1, “USE OF CFMS INHIBITOR FOR TREATING OR PREVENTING BONE CANCER AND THE BONE LOSS AND BONE PAIN ASSOCIATED WITH BONE CANCER” (priority 2007, published 2010)
# T1: CSF-1R (Mus musculus, UniProt P09581)
# T1 construct: from tissue; host or cells: mouse spleen, in vivo
# T1 sequence (P09581 20-977): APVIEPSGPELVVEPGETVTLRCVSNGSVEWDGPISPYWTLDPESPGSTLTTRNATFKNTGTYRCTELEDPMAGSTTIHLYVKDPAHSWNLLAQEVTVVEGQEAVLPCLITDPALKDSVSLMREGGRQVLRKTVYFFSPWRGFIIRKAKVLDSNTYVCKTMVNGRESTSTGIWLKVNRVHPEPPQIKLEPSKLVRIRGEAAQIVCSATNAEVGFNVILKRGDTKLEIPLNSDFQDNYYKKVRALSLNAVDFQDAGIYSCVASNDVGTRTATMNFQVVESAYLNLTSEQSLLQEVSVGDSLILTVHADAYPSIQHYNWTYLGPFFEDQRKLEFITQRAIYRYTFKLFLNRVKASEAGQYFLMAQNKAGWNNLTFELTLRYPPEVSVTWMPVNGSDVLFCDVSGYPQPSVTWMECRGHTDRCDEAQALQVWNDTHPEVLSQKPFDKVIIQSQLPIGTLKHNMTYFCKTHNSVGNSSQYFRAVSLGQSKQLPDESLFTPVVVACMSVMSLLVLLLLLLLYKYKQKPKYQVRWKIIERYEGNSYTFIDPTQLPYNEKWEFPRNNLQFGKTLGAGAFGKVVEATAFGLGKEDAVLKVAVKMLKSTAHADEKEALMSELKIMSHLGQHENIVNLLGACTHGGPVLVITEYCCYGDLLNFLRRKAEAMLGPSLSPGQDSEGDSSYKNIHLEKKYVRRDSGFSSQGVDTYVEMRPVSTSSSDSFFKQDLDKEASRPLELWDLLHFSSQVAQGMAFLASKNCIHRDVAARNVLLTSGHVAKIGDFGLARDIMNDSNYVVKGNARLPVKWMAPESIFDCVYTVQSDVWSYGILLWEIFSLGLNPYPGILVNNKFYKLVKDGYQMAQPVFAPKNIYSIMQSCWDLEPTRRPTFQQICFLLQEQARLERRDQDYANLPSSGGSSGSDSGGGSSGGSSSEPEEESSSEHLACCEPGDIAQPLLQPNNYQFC
# Biological target: T1, CSF-1R
# Experiment: In vivo pharmacodynamic model: CSF-1-induced splenic c-fos mRNA
# Protocol: Eight hours later, mice were administered saline or 0.8 μg recombinant mouse CSF-1 (Cell Biosciences Inc, Norwood, Mass.) via the tail vein. Fifteen minutes after the tail vein injection, mice were sacrificed and spleens were isolated and snap frozen on dry ice. The frozen tissue was homogenized in 1 ml of Trizol (Invitrogen) per 50 mg of tissue, and RNA was purified according to the Trizol instructions and treated with 6.8 Kunitz units of RNase-free DNase (Qiagen, Valencia, Calif.) to degrade contaminating genomic DNA. The RNA was purified further using RNeasy columns (Qiagen). RT-PCR was performed in 25 μL reaction volumes using Reverse Transciptase qPCR Master Mix (Eurogentec) and approximately 50 ng RNA. Applied Biosystems, Inc., (Foster City, Calif.) was the source for the primer probe set for mouse c-fos mRNA (part# Mm00487425) and 18S rRNA (part# 4333760F). Amplification and detection were performed using the ABI Prism 7000 Sequence Detector system. Standard curves were created for c-fos mRNA and for 18s rRNA using RNA isolated from a vehicle-treated, CSF-1-induced mouse and used to calculate relative expression levels in all other samples. c-fos mRNA values were normalized to 18S rRNA content. Averaged, normalized c-fos content in the saline (no CSF-1) group was assigned a value of one and all other groups were expressed as “fold-induced”.
molecule,measurement,setting,value
"CSF-1: recombinant mouse CSF-1 (Cell Biosciences Inc), given via the tail vein as challenge (protein, UniProt P07141 33-552, looked up) Macrophage colony-stimulating …: KEVSEHCSHMIGNGHLKVLQQLIDSQMETSCQIAFEFVDQEQLDDPVCYLKKAFFLVQDIIDETMRFKDNTPNANATERLQELSNNLNSCFTKDYEEQNKACVRTFHETPLQLLEKIKNFFNETKNLLEKDWNIFTKNCNNSFAKCSSRDVVTKPDCNCLYPKATPSSDPASASPHQPPAPSMAPLAGLAWDDSQRTEGSSLLPSELPLRIEDPGSAKQRPPRSTCQTLESTEQPNHGDRLTEDSQPHPSAGGPVPGVEDILESSLGTNWVLEEASGEASEGFLTQEAKFSPSTPVGGSIQAETDRPRALSASPFPKSTEDQKPVDITDRPLTEVNPMRPIGQTQNNTPEKTDGTSTLREDHQEPGSPHIATPNPQRVSNSATPVAQLLLPKSHSWGIVLPLGELEGKRSTRDRRSPAELEGGSASEGAARPVARFNSIPLTDTGHVEQHEGSSDPQIPESVFHLLVPGIILVLLTVGGLLFYKWKWRSHRDPQTLDSSVGRPEDSSLTQDEDRQVELPV",ED50 of splenic c-fos mRNA induction,intravenous recombinant CSF-1,ca. 0.8 μg/mouse
same,induction of splenic c-fos mRNA,"intravenous recombinant CSF-1, within fifteen minutes",10- to 50 fold
